Assay results published in publication PMC5943514, “Substrate specificity of human MCPIP1 endoribonuclease” (Scientific Reports, 2018).
Positions count from the first letter of the chain named. Names and notes keep the numbering of the source. Values joined by “and” are separate entries in the source; they are usually repeats but may differ in a detail not shown here. Identical values can stand only once.

What was measured:
[1] = molecular target: the molecule itself; assay: SEC; analytical Superdex 200 Increase 10/300 GL calibrated with protein standards; 25 mM Tris pH 7.9, 300 mM NaCl, 10% glycerol, 1 mM DTT, 0.5 mM EDTA, also with 1.6 M urea; apparent molecular weight from the calibration curve, multiple Gaussian peak fit
[2] = molecular target: T1, MCPIP1 D141N (Regnase-1), full length (Homo sapiens, UniProt Q5D1E8 1-599, D141N); assay: fluorescence intensity titration; 2.5 mM Mg2+; 25 mM Tris-HCl pH 7.9, 150 mM NaCl, 5% glycerol, 2.5 mM MgCl2, 1 mM DTT, 0.5 mM EDTA, 0.05 mM ZnCl2, 25 C; oligo 2 nM (full length) or 20 nM (PIN, PIN-ZF); conditions: protein: recombinant, tags: none stated (purified by ion exchange), chain copies: 2
T1 sequence: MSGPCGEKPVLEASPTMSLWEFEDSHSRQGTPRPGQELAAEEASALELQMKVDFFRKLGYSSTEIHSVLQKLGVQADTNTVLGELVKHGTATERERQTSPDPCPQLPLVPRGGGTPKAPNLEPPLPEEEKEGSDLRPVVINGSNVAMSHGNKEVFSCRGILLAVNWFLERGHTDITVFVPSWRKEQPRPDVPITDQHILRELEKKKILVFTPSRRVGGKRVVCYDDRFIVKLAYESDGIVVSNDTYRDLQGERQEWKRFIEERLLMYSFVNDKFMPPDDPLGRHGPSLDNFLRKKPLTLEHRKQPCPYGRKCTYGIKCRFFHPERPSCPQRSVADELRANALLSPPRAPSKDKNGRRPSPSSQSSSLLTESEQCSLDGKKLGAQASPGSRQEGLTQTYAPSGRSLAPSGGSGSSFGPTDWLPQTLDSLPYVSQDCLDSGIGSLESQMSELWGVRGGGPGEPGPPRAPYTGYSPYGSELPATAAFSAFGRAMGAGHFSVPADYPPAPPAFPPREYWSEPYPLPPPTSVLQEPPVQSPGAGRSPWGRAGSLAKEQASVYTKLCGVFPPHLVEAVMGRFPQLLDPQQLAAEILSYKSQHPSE

PIN D141N [3] = molecular target: T2, PIN D141N (Homo sapiens, UniProt Q5D1E8 134-297, D141N); assay: as above; conditions: protein: recombinant, tags: N-terminal His6, chain copies: 2
T2 sequence: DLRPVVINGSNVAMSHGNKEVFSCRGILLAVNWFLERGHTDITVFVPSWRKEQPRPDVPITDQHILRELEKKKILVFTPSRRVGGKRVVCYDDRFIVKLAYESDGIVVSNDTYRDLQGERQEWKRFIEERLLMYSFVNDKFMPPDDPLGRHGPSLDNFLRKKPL

PIN-ZF D141N [4] = molecular target: T3, PIN-ZF D141N (Homo sapiens, UniProt Q5D1E8 134-327, D141N); assay: as above; conditions: protein: recombinant, tags: N-terminal His6, chain copies: 2
T3 sequence: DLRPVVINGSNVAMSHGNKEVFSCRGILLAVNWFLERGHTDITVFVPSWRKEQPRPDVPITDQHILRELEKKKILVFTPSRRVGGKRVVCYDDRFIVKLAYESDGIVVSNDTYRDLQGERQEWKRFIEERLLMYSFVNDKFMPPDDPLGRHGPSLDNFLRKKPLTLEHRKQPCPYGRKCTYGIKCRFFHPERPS

PIN D141N [5] = molecular target: T2, PIN D141N; assay: fluorescence intensity titration; 2.5 mM Mg2+; 20 nM oligo; sequential 2:1 model; 25 mM Tris-HCl pH 7.9, 150 mM NaCl, 5% glycerol, 2.5 mM MgCl2, 1 mM DTT, 0.5 mM EDTA, 0.05 mM ZnCl2, 25 C; oligo 2 nM (full length) or 20 nM (PIN, PIN-ZF); conditions: protein: recombinant; tags: N-terminal His6; chain copies: 2; label: 5' 6-FAM; hairpin
PIN-ZF D141N [6] = molecular target: T3, PIN-ZF D141N; assay: as above; conditions: protein: recombinant; tags: N-terminal His6; chain copies: 2; label: 5' 6-FAM; hairpin
[7] = label: 5' 6-FAM on strand 1, blunt, strands mixed 1:1.2

B1: MCPIP1WT (Monocyte Chemoattractant Protein-1-Induced Protein 1), full-length (enzyme, human, UniProt Q5D1E8 1-599, looked up)
chain: T1 sequence with N141D
notes: human MCPIP1 encoded by ZC3H12A (synthetic gene optimised for E. coli, GenScript), full length, 1-599 aa; printed molecular weight 65.7 kDa; no tag is stated for the full-length protein; In solution a mixture of tetramer, dimer and monomer; also called Regnase-1; Regnase1; source: E. coli BL21-CodonPlus-RIL, purified (TMAE ion exchange in denaturing conditions, dialysis, Superdex 200 gel …)
With B1 the “stoichiometry N” value [1] was 4 and 2.

B2: MCPIP1_(D141N), full-length (enzyme, human, UniProt Q5D1E8 1-599, looked up)
chain: T1 sequence
notes: human MCPIP1 encoded by ZC3H12A, full length, 1-599 aa, catalytic site mutant D141N; no tag is stated for the full-length protein; also called MCPIP_(D141N); source: E. coli BL21-CodonPlus-RIL, purified (TMAE ion exchange in denaturing conditions, dialysis, Superdex 200 gel filtration)
In the case of B2, the “stoichiometry N” value [1] is reported as 2 and 4.

Work on UGUUCUCUACGAAGAAC (structured_RNA) [mIL-6 85-101 short stem] yielded a Kd ([2]; label: 5' 6-FAM, hairpin) of 9.2 ± 4 nM, a Kd (PIN D141N [3]; label: 5' 6-FAM, hairpin) of 20.7 ± 7.2 nM and a Kd (PIN-ZF D141N [4]; label: 5' 6-FAM, hairpin) of 20 ± 10 nM.

UGUUGUUCUCUACGAAGAACUGACA (structured_RNA) [mIL-6 82-106 5'FAM] was tested, and the Kd (PIN D141N [5]) was 24.1 ± 7.3 nM and the Kd (PIN-ZF D141N [6]) was 6.6 ± 3.1 nM.

UGUUGUUCUCUA (ssRNA) [mIL-6 82-93 ssRNA] was tested, and the Kd ([2]; label: 5' 6-FAM, unstructured) was 19 ± 11 nM, the Kd (PIN D141N [3]; label: 5' 6-FAM, unstructured) was 41 ± 12 nM and the Kd (PIN-ZF D141N [4]; label: 5' 6-FAM, unstructured) was 34 ± 18 nM.

B3: mIL-6 82-93 dsDNA (dsDNA)
DNA 1: TGTTGTTCTCTA
DNA 2: TAGAGAACAACA
With B3 the Kd [2, 7] was 118 ± 49 nM, the Kd (PIN D141N [3]; [7]) was 56 ± 17 nM and the Kd (PIN-ZF D141N [4]; [7]) was 80 ± 30 nM.

With UGUUCUCUAUGGAGAACU (structured_RNA) [hIL-6 82-99] the Kd ([2]; label: 5' 6-FAM, hairpin) was 4.1 ± 3.6 nM, the Kd (PIN D141N [3]; label: 5' 6-FAM, hairpin) was 15.1 ± 4.5 nM and the Kd (PIN-ZF D141N [4]; label: 5' 6-FAM, hairpin) was 13.2 ± 6.8 nM.

With UGGAAAGUAUCUUUCCU (structured_RNA) [consensus stem-loop] the Kd ([2]; label: 5' 6-FAM, hairpin) was 3.8 ± 2.8 nM, the Kd (PIN D141N [3]; label: 5' 6-FAM, hairpin) was 36 ± 17 nM and the Kd (PIN-ZF D141N [4]; label: 5' 6-FAM, hairpin) was 9.1 ± 3.2 nM.

For UGUUGUU (ssRNA) [mIL-6 82-88 ssRNA], the Kd ([2]; label: 5' 6-FAM, unstructured) was 14.5 ± 8.1 nM, the Kd (PIN D141N [3]; label: 5' 6-FAM, unstructured) was 40 ± 12 nM and the Kd (PIN-ZF D141N [4]; label: 5' 6-FAM, unstructured) was 32 ± 20 nM.

For UGUUGUUCUCUACGAAGAACUGACA (structured_RNA) [mIL-6 82-106 3'FAM], the Kd ([2]; label: 3' 6-FAM, hairpin) was 8.6 ± 2.6 nM, the Kd (PIN D141N [3]; label: 3' 6-FAM, hairpin) was 21.8 ± 6.3 nM and the Kd (PIN-ZF D141N [4]; label: 3' 6-FAM, hairpin) was 4.8 ± 1.8 nM.

Binder ACAGUCAAGACUACGAUCUUGUUGU (structured_RNA) [mIL-6 82-106 RS (reverse stem)] has a Kd ([2]; label: 5' 6-FAM, hairpin) of 9.8 ± 2.3 nM, a Kd (PIN D141N [3]; label: 5' 6-FAM, hairpin) of 39.3 ± 8.6 nM and a Kd (PIN-ZF D141N [4]; label: 5' 6-FAM, hairpin) of 15.1 ± 7.3 nM.

UGUUGUACACUACGAUGUACUGACA (structured_RNA) [mIL-6 82-106 YR] gave a Kd ([2]; label: 5' 6-FAM, hairpin) of 9.5 ± 5.2 nM, a Kd (PIN D141N [3]; label: 5' 6-FAM, hairpin) of 25.1 ± 7 nM and a Kd (PIN-ZF D141N [4]; label: 5' 6-FAM, hairpin) of 14.4 ± 9.6 nM.

UUUUUUUUUUUU (ssRNA) [poly-U 12 nt] showed a Kd ([2]; label: 5' 6-FAM) of 14.8 ± 7.2 nM, a Kd (PIN D141N [3]; label: 5' 6-FAM) of 39 ± 11 nM and a Kd (PIN-ZF D141N [4]; label: 5' 6-FAM) of 43 ± 23 nM.

Work on TGTTGTTCTCTA (ssDNA) [mIL-6 82-93 ssDNA] yielded a Kd ([2]; label: 5' 6-FAM) of 18.3 ± 8.2 nM, a Kd (PIN D141N [3]; label: 5' 6-FAM) of 21.7 ± 6.6 nM and a Kd (PIN-ZF D141N [4]; label: 5' 6-FAM) of 36 ± 20 nM.
